Results reported in paper PMC12243203.

Target: recombinant His-EtSERPIN1 protein (Eimeria tenella)

How did the adhesion rate to DF-1 cells of yeast cells displaying EtSERPIN1 that were pre-incubated with recombinant GgANXA2 protein (PBS group: 26.75%) turn out when “recombinant His-tag GgANXA2 protein (from UniProt P17785 1-339) (natural protein)” was run?
The adhesion rate to DF-1 cells of yeast cells displaying EtSERPIN1 that were pre-incubated with recombinant GgANXA2 protein (PBS group: 26.75%) was 44.3%.
